Tests used:
[1] = test system: P37277; experiment: anion-exchange chromatography; DDM-solubilised thylakoid membranes (2 mg chl) on DEAE, MgSO4 gradient, 0.04% DDM; A700 peak areas of the PSI trimer and PSI monomer fractions; cells grown under increased photon flux (FL); WT and ORR1 strains; conditions: other: anion-exchange chromatography
[2] = test system: P37277; experiment: anion-exchange chromatography; DDM-solubilised thylakoid membranes (2 mg chl) on DEAE, MgSO4 gradient, 0.04% DDM; A700 peak areas of the PSI trimer and PSI monomer fractions; cells grown under standard conditions (GL); WT and ORR1 strains; conditions: other: anion-exchange chromatography
[3] = molecular target: photosystem I (PSI) reaction center (Synechocystis sp. PCC 6803 (endogenous in S. 6803 cells)) (UniProt P37277); experiment: anion-exchange chromatography; DDM-solubilised thylakoid membranes (2 mg chl) on DEAE, MgSO4 gradient, 0.04% DDM; A700 peak areas of the PSI trimer and PSI monomer fractions; cells grown under increased photon flux (FL); WT and ORR1 strains
[4] = molecular target: photosystem I (PSI) reaction center (Synechocystis sp. PCC 6803 (endogenous in S. 6803 cells)) (UniProt P37277); experiment: anion-exchange chromatography; DDM-solubilised thylakoid membranes (2 mg chl) on DEAE, MgSO4 gradient, 0.04% DDM; A700 peak areas of the PSI trimer and PSI monomer fractions; cells grown under standard conditions (GL); WT and ORR1 strains
[5] = molecular target: photosystem I (PSI) reaction center (Synechocystis sp. PCC 6803 (endogenous in S. 6803 cells)) (UniProt P37277); experiment: native gel or EMSA; BN-PAGE, 4-16% Bis/Tris gels, of PSI fractions isolated by anion-exchange chromatography (or sucrose gradients), 0.04% DDM; bands compared to literature; WT and ORR1 cells, GL or FL

photosystem I (PSI) reaction center, sequence (P37277 whole entry, looked up): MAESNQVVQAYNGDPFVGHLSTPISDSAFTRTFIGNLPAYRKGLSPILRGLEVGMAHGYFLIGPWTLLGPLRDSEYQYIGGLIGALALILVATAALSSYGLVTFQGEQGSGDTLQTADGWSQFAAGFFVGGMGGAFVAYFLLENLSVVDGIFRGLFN

Substance	Monomer (% of total PSI), ORR1 strain (% of total PSI) [1]	Monomer (% of total PSI), WT strain (% of total PSI) [1]	Monomer (% of total PSI), ORR1 strain (% of total PSI) [2]	Monomer (% of total PSI), WT strain (% of total PSI) [2]	Monomer : trimer (A700 peak areas), ORR1 strain [3]	Monomer : trimer (A700 peak areas), WT strain [3]	Trimer : monomer (A700 peak areas), ORR1 strain [3]	Trimer : monomer (A700 peak areas), WT strain [3]	Monomer : trimer (A700 peak areas), ORR1 strain [4]	Monomer : trimer (A700 peak areas), WT strain [4]	Trimer : monomer (A700 peak areas), ORR1 strain [4]	Trimer : monomer (A700 peak areas), WT strain [4]	stoichiometry N [5]
photosystem I (PSI) reaction center	34	10	18	14	–	–	–	–	–	–	–	–	–
photosystem I (PSI) reaction center (from UniProt P37277 1-157) (complex)	–	–	–	–	0.53	0.11	2	9.2	0.23	0.17	4.6	6.3	3
